From the nanobody polyreactivity screen of Harvey et al. (2022) come the findings set out here.

The data set in a line: yeast display, Sf9 membrane polyspecificity reagent, FACS + sequencing; frameworks hold sequencing errors. In short, it runs like this:
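Genes from sorted yeast were amplified by colony PCR, read by MiSeq 2 × 250 sequencing and filtered on CDR length. These cells carried a synthetic nanobody library in Saccharomyces cerevisiae BJ5465 and were sorted by FACS into low and high (top ~1%) gates on anti-HA and streptavidin fluorescence. Polyreactivity is labelled according to the gate of origin.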
Take “QVQLVDSGGGLVQAGGSLRLSCAASGSTIPIYAMVWYRQAPGKERELVARITWSGGSTYYADSVKGRFTISRDNAKNTVYLQMNSLKPEDTAVYYCAAVVITTPYDRYYYWGQGTQVTVSS”: the “polyreactivity (PSR sort gate)” value was “high polyreactivity”.
The result for “QVQLVDSGGGLVQAGGSLRLSCAASGSTIPNYAMGWYRQAPGKERELVADIDSSGGSTYYADSVKGRFTISRDNAKNTVYLQMNSLKPEDTAVYYCAAGYFWYDVLNSRVLVWNNYWGQGTQVTVSS” reads “high polyreactivity”; that for “QVQLVDSGGGLVQAGGSLRLSCAASGSTLNSYVIGWYRQAPGKERELVATIRSGSSTNYADSVKGRFTISRDNAKNTVYLQMNSLKPEDTAVYYCAADAYSLCYDSWGQGTQVTVSS”, “low polyreactivity”.
As for “QVQLVDSGGGLVQAGGSLRLSCAASGSTSYWYAMGWYRLAPWKEMELFATIRSRGGSTSYADSVKGRFTISRDNAKNTVYLQMNSLKPEDTAVYYCAVEYQSWKGWWFDYWGQGTQVTVSS”, the entry is “high polyreactivity”; as for “QVQLVDSGGGLVQAGGSLRLSCAASGSTVQYYAMGWYRQAPGKERELVAAITHSGTRTYYADSVKGRFTISRDNAKNTVYLQINSLKPEDTAVYYCAARGYGKYDYWGQGTQVTVSS”, “high polyreactivity”.
As for “QVQLVDSGGGLVQAGGSLRLSCAASGYTFVGYAMGWSRQAPGKERELVAVISGSGGSTRYADSVKGRFTISRDNAKNTVYLQMNSLKPEDTAVYYCAARQPRTQAVYEGYYWGQGTQVTVSS”, the “polyreactivity (PSR sort gate)” value is given as “high polyreactivity”.
Turning to “QVQLVDSGGGLVQAGGSLRLSCAASVRIFTINAMGWYRPAPGKDRELVAAISDGGGSTYYADSVKGRFTISRYNAKNTVYLQMNSLKPEDTAVYYCARKSWPKERRVDPGYDYGGQGTQVTVSS”, the “polyreactivity (PSR sort gate)” value is recorded as “low polyreactivity”.
As for “QVQLVDSGGGLVQAGGSLRLSCASSGFIFAVYAMGWYRQAPGKERELVARISWSGGSTYYADSVKGRFTISRDNAKNTVYLQMNSLKPEDTAVNYCWGQGTQVTVSS”, the entry is “low polyreactivity”; as for “QVQLVDSGGGLVQAGGSLRLSCASSGRIFHGYAMGWYRHAPGKERELVAAIDEDGGSTYYADSVKGRFTISRDNAKNTVYLQMNSLKPEDTAVYYCATDALYTYGYDYWGQGTQVTVSS”, “low polyreactivity”; as for “QVQLVDSGGGLVQAGGSLRLSCDASGFIFERYAMGWYRQAPGKERELVAGIYSGGSTYYADSVKGRFTISRDNAKNTVYLQMNSLKPEDTAVYYCAPYRRQHIIYNYWGQGTQVTVSS”, “high polyreactivity”.
For “QVQLVDSGGGLVQAGGSLRLSCDASGSTFRGYAMGWYRKAPGKERELVAAISSRGARTHYADSLKGRFTISRDNAKNNVYLQMNSLKPEDTAVYYCNKRQVFFSTGEYEFDYWGQGTQVTVSS”, the “polyreactivity (PSR sort gate)” value is given as “low polyreactivity”.
In the case of “QVQLVDSGGGLVQAGGSLRLSCPASGITLNHYVMGWYRQAPAKETELVAAISSSGGSTYYADSVKGRFTISRDNAMITVYLQMNSLKPEDTAVYYCAKDYNGRYTWRYEYWGQGTQVTVSS”, the “polyreactivity (PSR sort gate)” value is “high polyreactivity”.
On to “QVQLVDSGGGLVQAGGSLRLSCPASGSIISVYARGWYRQAPGKERELVADITGTGDTYYADSVKGRFTISRDKAKNTVYLHRNSLKPDDTAGYYCNTVYELYYDPSVTEDYWGQGTQVTVSS”, for which the “polyreactivity (PSR sort gate)” value is reported as “low polyreactivity”.
As to “QVQLVDSGGGLVQAGGSLRLSCSASVRTFRGTAMGWYRHAPGKEREMVAPITYRTGSKYYPDSVKGRFTNSRDNAKNTVYLLLNSLKPEDSAVYYCAAVSGRSYDKDYFWGQGTQVTVSS”, the “polyreactivity (PSR sort gate)” value is reported as “high polyreactivity”.
On to “QVQLVDSGGGLVQAGGSLRLSSAASGFIFQANAMGSSRQAPGKERELVAAIDDGDSTYADSVKGRFTISRDNAKNSVYLQMNSLKPEDTAVYYCATRRNRSYDYWGQGTQVTVSS”, for which the “polyreactivity (PSR sort gate)” value is on record as “low polyreactivity”.
Take “QVQLVDSGGGLVQAGGSLRLTCAASGRTFWKYCKGWYRQAPGQERELVAVMSRPAGSTYYADSVKGRFPISRDNAKNTGYLLLNRLKPEDTAVYSCAKRPKNKPVLGDYDHWGQGTQVTVSS”: the “polyreactivity (PSR sort gate)” value is “low polyreactivity”.
As for “QVQLVDSGGGLVQAGGSLRLTCAASGTFYYYAMGWNRQAPGKERELVAAISYSGGRTYYADSVKGRFTISRDNAKNTVYLQMNSLKPEDTAFYYCNTDARSKKYIFDFDYWGQGTQVTLSS”, the entry is “high polyreactivity”; as for “QVQLVDSGGGLVQAGGSLRLTCGSSGSIFYYYVMGLYIQAHGKERELVAAISSGGGTNYSDSVKGRFTISRYNAKNTVYLQMNSLKPEDTAVYYCAKASAYGLANDYDYCGQGTQVTVSS”, “low polyreactivity”; as for “QVQLVDSGGGLVQAGGSLSLSCAASGFTFVRYAMGWYRQAPGKERELVAAISGRGGSTYFADSVKGRFTISRDYAKNTVYLQMNSLKPDDTAVYYCATDYSRTFDYWGQGTQVTVSS”, “high polyreactivity”.
Consider “QVQLVDSGGGLVQAGGSLSLSCAASGRTFARYTMGWSRQAPGKERELLAVISRSGGSTYYADSVKGRFTISRDNAKNSVYLKKNSLKQEDTAVYYCAAGYFVVTTLEYYFWGQGTQVTVSS”, for which the “polyreactivity (PSR sort gate)” value was “high polyreactivity”.
For “QVQLVDSGGGLVQAGGSLSLSCAASGRTFNYKAMGWYRQAPGKERELVAAISWGGGSTFYADSVKGRFTISRDNAKNTVYLEMNSLKPEDTAVYYCAAYRQYGNRGAYYSWGQGTQVTVSS”, the “polyreactivity (PSR sort gate)” value was “low polyreactivity”.
On to “QVQLVDSGGGLVQAGGSLSLSCAASGRTFYPYAMGWYRQAPGKERELVARISRGGRTNYADSVKGRFTISRDNAKNTVYLQMNSLKPEDTAVYYCAAVYYGSYFITEDYWGQGTQVTVSS”, for which the “polyreactivity (PSR sort gate)” value is on record as “low polyreactivity”.
Turning to “QVQLVDSGGGLVQAGGSLSLSCAASGSTFVVNAMGWYRQAPGKERELVAAITQSGGSTFYADSVKGRFTISRDNAKNTVYLQMNSLKPEDTAVYYWGQGTQVTVSS”, the “polyreactivity (PSR sort gate)” value is listed as “low polyreactivity”.
For “QVQLVDSGGGLVQAGGSLSLSCAASGYTFDTNAMGWYRQAPGKERELVAAIDFSGGTTYADSVKGRFTISRDNAKNTVYLQMNSLKPEDTAVYYCSADHSGGSRYDYWGQGTQVTVSS”, the “polyreactivity (PSR sort gate)” value is given as “low polyreactivity”.
Turning to “QVQLVDSGGGLVQAGGTLRLSCAASGRTFSSYAMGWYIQAPGKERELVSAISWSGGITYYADSVKVRFTISRDNAKNTVYLQMNSLKPEDTAVYYCAVALTRRKSYEYSGGFWGQGTQVTVSS”, the “polyreactivity (PSR sort gate)” value was “high polyreactivity”.
For the sequence “QVQLVDSGGGLVQAGGTLRLSCAATGRTVSKYAMGWYRQAPGKERELVAAITRSGGRTYYADSVKGRFTISRDNAKNTVYLQMNSLKPEDTAVYYCARTTNQHTLATEDDYWGQGTQVTVSS”, the “polyreactivity (PSR sort gate)” value is “high polyreactivity”.
“QVQLVDSGGGLVQAGVSLRLSCAASGFIFYRYAMVWYRQAPGKERELVAAINWSGGGTYYADSVKGRFTISRDNAKNTVYLLMNSLKPEDTAVYYCAAVRSFRGSYWYEYWGQGSQVTVSS”: the “polyreactivity (PSR sort gate)” value is recorded as “high polyreactivity”.
For the sequence “QVQLVDSGGGLVQAVGSLRLSCAASGSIFRLNAMGWYRQAPGKERDLVGAITWSDSSTYYADSVKGRFTISRDNAKNTVYLQMNSLKPEDTAVYYCAADPQSYKYDYWGQGTQVTVSS”, the “polyreactivity (PSR sort gate)” value is on record as “low polyreactivity”.
The result for “QVQLVDSGGGLVQGGGSLRLSCAASGRTFGIYPMRWYRPAPGKERELVAAISRRGTSTYYADTVKGRFTISRDNAKNTVYLQLNSLKPEDTAVYYCATVGATVDNRDDYWGQGTQVTVSS” reads “high polyreactivity”; that for “QVQLVDSGGGSVQAGGSLRLSCAASGSTFYENAMGWYREAPGKETELVAASTWSGGRTYYADSVKGRFTISRDNAKNTVYLQMYSLKPEDTAVYYCNARARSRKFYYWGQGTQVTVSS”, “high polyreactivity”.
